Source: publication PMC9247205

Biological target: GST-SF1KQ (EhSF1 KH-QUA2 domain) (Entamoeba histolytica) (UniProt C4M4V3)
Test: EMSA
Conditions: EMSA: 50 ug protein (Fig 4), 200 fmol probe, 20 min (+10 min with U2 snRNA); binding buffer as in Ortuno-Pineda 2012, not given; UV crosslinking at pH 7.6 or …

| Sequence | binding signal |
| --- | --- |
| UAUACUAACAA [yeast canonical BS probe (C+)] | 50% |
| AACUUUUAUUU [E. histolytica RabX13 intron BS probe (P+)] | 50% |
